Tests used:
[1] = tested on: FLAG-tagged HP1α; assay: pull-down with Strep-tagged KAP1, Western blot; format: binding; details: Strep-tagged full-length KAP1 mutant, HCT116 cells; 3 biological replicates
Description: For all AP experiments, HCT116 cells were seeded in 10 cm plates (~4 million cells per dish) and transfected with Strep- and Flag-tagged plasmids one-day after seeding cells. Two days post-transfection, cells were collected in PBS and lysed with passive lysis buffer (PLB: 50 mM Tris-HCl pH 7.5, 150 mM NaCl, 1 mM DTT, 1.0% NP-40, 1.5 mM MgCl2, 5% v/v glycerol, and 1X complete, Mini EDTA-free, EASYpack Protease Inhibitor [Roche, Cat# 4693159001]) by resuspending cells in PLB, vortexing briefly, nutating for 15 min at 4 °C, and centrifuging the lysate (10,000 × g, 10 min, 4 °C). Strep-Tactin superflow resin (IBA Life Sciences, Cat# 2-1208-010), was equilibrated by centrifuging beads (2000 RPM, 2 min, 4 °C), removing storage buffer, and washing three times with PLB with nutation for 5 min at 4 °C. Beads were volumed back to their original volume, and 40 µL beads were used per AP and bound for 2 h. Beads were then washed with AP Wash Buffer (50 mM Tris-HCl pH 7.5, 250 mM NaCl, 1 mM DTT, 0.2% NP-40, 1.5 mM MgCl2, and 5% v/v glycerol), and eluted with Strep-tag Elution Buffer containing D-Desthiobiotin (IBA Life Sciences, Cat# 2-1000-025). […]
Tryptophan fluorescence data are presented as average of three independent measurements ±SD. […]

[2] = tested on: endogenous retroelements in KAP1 cKO ESCs; assay: ATAC-seq chromatin accessibility; format: cell-based, mouse; details: exogenous expression in KAP1 cKO ESCs, 2 μg/mL doxycycline, 2 μM 4-OHT 48 h
Description: ESCs were maintained under standard conditions on gelatin-coated plates at 37 °C at 5% CO2 in Knockout DMEM (Thermo Fisher) supplemented with NEAA, GlutaMAX, penicillin/streptomycin (Thermo Fisher), 15% ESC-screened fetal bovine serum (Hyclone), 0.1 mM 2-mercaptoethanol (Fisher), and leukemia-inhibitory factor (LIF). Generation of KAP1 cKO ESCs has been described previously. The piggybac transposon system was used to stably integrate transgenic Flag-tagged WT or V488E mutant KAP1 under control of an rtTA promoter (Systems Biosciences, PB-TRE-EGFP-EF1a-rtTA) into the inducible KAP1 cKO ESCs. Exogenous expression of WT or V488E mutant KAP1 was induced with 2 μg/mL doxycycline for 48 h and maintained in doxycycline prior to endogenous KAP1 deletion. KAP1 deletion was induced with 2 μM 4-OHT (Sigma) treatment for 48 h. […]
The modified ATAC-sequencing protocol Omni-ATAC was performed. […] Number of further PCR cycles required was determined using KAPA Library Quantification Kit (KK4854). […]
Quality of datasets was assessed using the FastQC tool. Raw reads were adapter and quality trimmed using Trimgalore. Trimmed reads were aligned to the mouse reference genome (mm10) with Bowtie2. Multimapping reads were randomly assigned. Optical duplicate reads were filtered using Picard (https://broadinstitute.github.io/picard/). Reads which mapped to the mitochondrial genome were removed with Samtools. […]

B1: V488E KAP1: V488E mutant of KAP1, impaired in binding to HP1 (protein)
chain: MAASAAAASAAAASAASGSPGPGEGSAGGEKRSTAPSAAASASASAAASSPAGGGAEALELLEHCGVCRERLRPEREPRLLPCLHSACSACLGPAAPAAANSSGDGGAAGDGTVVDCPVCKQQCFSKDIVENYFMRDSGSKAATDAQDANQCCTSCEDNAPATSYCVECSEPLCETCVEAHQRVKYTKDHTVRSTGPAKSRDGERTVYCNVHKHEPLVLFCESCDTLTCRDCQLNAHKDHQYQFLEDAVRNQRKLLASLVKRLGDKHATLQKSTKEVRSSIRQVSDVQKRVQVDVKMAILQIMKELNKRGRVLVNDAQKVTEGQQERLERQHWTMTKIQKHQEHILRFASWALESDNNTALLLSKKLIYFQLHRALKMIVDPVEPHGEMKFQWDLNAWTKSAEAFGKIVAERPGTNSTGPAPMAPPRAPGPLSKQGSGSSQPMEVQEGYGFGSGDDPYSSAEPHVSGVKRSRSGEGEVSGLMRKVPRESLERLDLDLTADSQPPVFKVFPGSTTEDYNLIVIERGAAAAATGQPGTAPAGTPGAPPLAGMAIVKEEETEAAIGAPPTATEGPETKPVLMALAEGPGAEGPRLASPSGSTSSGLEVVAPEGTSAPGGGPGTLDDSATICRVCQKPGDLVMCNQCEFCFHLDCHLPALQDVPGEEWSCSLCHVLPDLKEEDGSLSLDGADSTGVVAKLSPANQRKCERVLLALFCHEPCRPLHQLATDSTFSLDQPGGTLDLTLIRARLQEKLSPPYSSPQEFAQDVGRMFKQFNKLTEDKADVQSIIGLQRFFETRMNEAFGDTKFSAVLVEPPPMSLPGAGLSSQELSGGPGDGP
modifications: left off: Strep, end not stated, kept
pull-down of FLAG-tagged HP1α [1]: eliminated binding of exogenously expressed FLAG-tagged HP1α | restoration of closed chromatin at IAPEz, MERVK10C and ETn [2]: could not restore a closed chromatin state to the same extent observed with expression of WT KAP1
